Experiments:
[1] = target: MT145 SOSIP.664 trimer (chimpanzee SIVcpzPtt MT145 Env, wild-type V2) (SIVcpzPtt (chimpanzee SIV), isolate MT145)
[2] = target: MT145K SOSIP.664 trimer (chimpanzee SIVcpzPtt MT145 Env, Q171K) (SIVcpzPtt (chimpanzee SIV), isolate MT145); test: cryo-EM structure

Substance: MT145 SOSIP.664 trimer (chimpanzee SIVcpzPtt MT145 Env, wild-type V2) (complex)
- stoichiometry N [1]: 3

Substance: MT145K SOSIP.664 trimer (chimpanzee SIVcpzPtt MT145 Env, Q171K) (complex)
- stoichiometry N [2]: 3
